Assay results from article PMC12990809.

How the values were obtained:
Test in all cases: pulldown
[1] = biological target: T1, CBG13971 (Caenorhabditis briggsae) (UniProt A8XIX4); conditions: 20 nM protein, 1.5 uM RNA pool; 20 mM HEPES pH 7.8, 70 mM KCl, 10 mM NaCl, 10% glycerol, 2 mM DTT, 0.1 ug/uL BSA; 30 min, 4 C
T1 sequence: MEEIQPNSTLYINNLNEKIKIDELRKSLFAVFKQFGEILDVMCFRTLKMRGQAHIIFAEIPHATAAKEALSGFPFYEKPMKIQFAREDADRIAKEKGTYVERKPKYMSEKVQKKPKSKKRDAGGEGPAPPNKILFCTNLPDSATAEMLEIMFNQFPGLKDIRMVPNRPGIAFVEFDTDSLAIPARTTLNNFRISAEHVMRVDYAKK

[2] = biological target: T2, rbm38 (Danio rerio) (UniProt A0A8M1NF18); conditions: 20 nM protein, 1.5 uM RNA pool; 20 mM HEPES pH 7.8, 70 mM KCl, 10 mM NaCl, 10% glycerol, 2 mM DTT, 0.1 ug/uL BSA; 30 min, 4 C (protocol of this paper; not …); cited from earlier work
T2 sequence: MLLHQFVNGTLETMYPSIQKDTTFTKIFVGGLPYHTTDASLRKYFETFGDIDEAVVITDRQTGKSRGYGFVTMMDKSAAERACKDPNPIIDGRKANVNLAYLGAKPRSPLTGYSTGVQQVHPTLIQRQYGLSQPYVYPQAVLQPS

[3] = biological target: T3, CBG04067 ins404_V (Caenorhabditis briggsae) (UniProt Q6E3D5); conditions: 20 nM protein, 1.5 uM RNA pool; 20 mM HEPES pH 7.8, 70 mM KCl, 10 mM NaCl, 10% glycerol, 2 mM DTT, 0.1 ug/uL BSA; 30 min, 4 C
T3 sequence: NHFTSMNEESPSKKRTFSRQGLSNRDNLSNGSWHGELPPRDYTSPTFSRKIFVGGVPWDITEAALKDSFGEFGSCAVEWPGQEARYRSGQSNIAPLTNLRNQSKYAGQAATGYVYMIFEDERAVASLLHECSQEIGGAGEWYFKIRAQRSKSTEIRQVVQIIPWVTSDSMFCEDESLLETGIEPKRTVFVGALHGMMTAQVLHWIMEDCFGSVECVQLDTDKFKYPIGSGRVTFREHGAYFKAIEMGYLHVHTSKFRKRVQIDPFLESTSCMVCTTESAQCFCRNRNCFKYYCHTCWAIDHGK

[4] = biological target: T4, A1CF (Gallus gallus) (UniProt A0A8V0ZPX5); conditions: 20 nM protein, 1.5 uM RNA pool; 20 mM HEPES pH 7.8, 70 mM KCl, 10 mM NaCl, 10% glycerol, 2 mM DTT, 0.1 ug/uL BSA; 30 min, 4 C (protocol of this paper; not …); cited from earlier work
T4 sequence: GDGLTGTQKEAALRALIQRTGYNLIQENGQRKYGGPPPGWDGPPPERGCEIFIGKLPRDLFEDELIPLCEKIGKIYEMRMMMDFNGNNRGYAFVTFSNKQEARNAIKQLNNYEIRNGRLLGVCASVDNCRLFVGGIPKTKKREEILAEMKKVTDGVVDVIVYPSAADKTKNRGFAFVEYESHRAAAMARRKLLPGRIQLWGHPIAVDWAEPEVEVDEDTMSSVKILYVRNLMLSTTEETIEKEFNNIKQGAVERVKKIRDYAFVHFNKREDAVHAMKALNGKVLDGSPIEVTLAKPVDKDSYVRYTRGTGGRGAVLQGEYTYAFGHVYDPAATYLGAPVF

[5] = biological target: T5, Y69A2AR.32 L314S (Caenorhabditis elegans) (UniProt H2L0S1); conditions: 20 nM protein, 1.5 uM RNA pool; 20 mM HEPES pH 7.8, 70 mM KCl, 10 mM NaCl, 10% glycerol, 2 mM DTT, 0.1 ug/uL BSA; 30 min, 4 C
T5 sequence: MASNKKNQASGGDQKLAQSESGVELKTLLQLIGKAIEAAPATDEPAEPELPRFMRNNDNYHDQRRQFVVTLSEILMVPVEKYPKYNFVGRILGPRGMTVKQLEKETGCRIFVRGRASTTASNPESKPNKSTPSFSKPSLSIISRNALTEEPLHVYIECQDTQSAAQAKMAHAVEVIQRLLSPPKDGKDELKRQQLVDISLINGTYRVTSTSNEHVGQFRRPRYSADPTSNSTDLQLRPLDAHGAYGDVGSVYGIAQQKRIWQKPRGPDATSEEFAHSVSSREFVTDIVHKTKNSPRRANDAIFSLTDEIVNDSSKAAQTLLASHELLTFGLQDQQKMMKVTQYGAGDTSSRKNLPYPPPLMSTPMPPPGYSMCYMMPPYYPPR

[6] = biological target: HNRNPA1 (Homo sapiens) (UniProt P09651); conditions: 20 nM protein, 1.5 uM RNA pool; 20 mM HEPES pH 7.8, 70 mM KCl, 10 mM NaCl, 10% glycerol, 2 mM DTT, 0.1 ug/uL BSA; 30 min, 4 C (protocol of this paper; not …); cited from earlier work
HNRNPA1 (Homo sapiens), sequence (P09651 1-226): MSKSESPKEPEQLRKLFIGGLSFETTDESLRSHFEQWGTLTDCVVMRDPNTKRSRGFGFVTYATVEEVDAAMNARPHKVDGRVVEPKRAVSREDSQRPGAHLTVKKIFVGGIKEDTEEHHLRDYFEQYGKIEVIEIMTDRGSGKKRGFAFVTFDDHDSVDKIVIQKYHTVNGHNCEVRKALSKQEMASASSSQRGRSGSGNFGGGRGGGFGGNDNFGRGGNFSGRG

[7] = biological target: T6, rbm24a (Tetraodon nigroviridis) (UniProt H3CUV7); conditions: 20 nM protein, 1.5 uM RNA pool; 20 mM HEPES pH 7.8, 70 mM KCl, 10 mM NaCl, 10% glycerol, 2 mM DTT, 0.1 ug/uL BSA; 30 min, 4 C (protocol of this paper; not …); cited from earlier work
T6 sequence: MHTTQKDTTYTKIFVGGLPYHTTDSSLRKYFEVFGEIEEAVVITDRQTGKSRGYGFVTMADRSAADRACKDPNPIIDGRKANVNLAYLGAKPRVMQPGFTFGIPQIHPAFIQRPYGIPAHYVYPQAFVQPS

[8] = biological target: T7, csx1 (Schizosaccharomyces pombe) (UniProt O13759); conditions: 20 nM protein, 1.5 uM RNA pool; 20 mM HEPES pH 7.8, 70 mM KCl, 10 mM NaCl, 10% glycerol, 2 mM DTT, 0.1 ug/uL BSA; 30 min, 4 C
T7 sequence: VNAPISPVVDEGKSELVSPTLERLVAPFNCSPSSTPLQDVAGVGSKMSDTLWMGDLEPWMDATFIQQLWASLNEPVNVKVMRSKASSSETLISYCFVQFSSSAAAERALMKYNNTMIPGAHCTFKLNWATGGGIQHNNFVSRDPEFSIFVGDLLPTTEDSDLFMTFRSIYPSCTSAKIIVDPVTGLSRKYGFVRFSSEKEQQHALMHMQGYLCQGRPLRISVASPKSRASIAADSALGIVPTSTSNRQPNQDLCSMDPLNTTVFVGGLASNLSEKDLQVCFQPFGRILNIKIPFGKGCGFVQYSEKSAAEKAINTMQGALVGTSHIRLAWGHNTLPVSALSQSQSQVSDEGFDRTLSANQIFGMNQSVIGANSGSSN

[9] = biological target: T8, PK03611.1 N266D (Cannabis sativa) (UniProt A0A7J6FG33); conditions: 20 nM protein, 1.5 uM RNA pool; 20 mM HEPES pH 7.8, 70 mM KCl, 10 mM NaCl, 10% glycerol, 2 mM DTT, 0.1 ug/uL BSA; 30 min, 4 C
T8 sequence: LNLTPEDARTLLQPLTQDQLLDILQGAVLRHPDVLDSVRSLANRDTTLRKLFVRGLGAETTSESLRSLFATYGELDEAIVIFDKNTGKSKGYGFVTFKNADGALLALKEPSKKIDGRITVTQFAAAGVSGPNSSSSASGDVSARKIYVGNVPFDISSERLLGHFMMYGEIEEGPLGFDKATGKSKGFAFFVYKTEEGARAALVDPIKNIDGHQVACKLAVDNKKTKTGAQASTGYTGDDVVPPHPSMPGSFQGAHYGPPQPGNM

[10] = biological target: T9, PK22404.1 A169L;A170F;T171A;T450P (Cannabis sativa) (UniProt A0A803PFA7); conditions: 20 nM protein, 1.5 uM RNA pool; 20 mM HEPES pH 7.8, 70 mM KCl, 10 mM NaCl, 10% glycerol, 2 mM DTT, 0.1 ug/uL BSA; 30 min, 4 C
T9 sequence: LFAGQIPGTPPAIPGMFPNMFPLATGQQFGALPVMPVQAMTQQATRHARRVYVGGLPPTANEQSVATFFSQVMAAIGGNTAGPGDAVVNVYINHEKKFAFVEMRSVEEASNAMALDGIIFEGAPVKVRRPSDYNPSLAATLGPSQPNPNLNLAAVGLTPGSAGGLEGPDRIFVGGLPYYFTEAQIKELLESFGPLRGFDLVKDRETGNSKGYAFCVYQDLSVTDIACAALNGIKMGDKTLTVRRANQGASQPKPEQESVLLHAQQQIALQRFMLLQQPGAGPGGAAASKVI

## GCACUU [RNAcompete motif RNCMPT00323]
[1]
  binding signal (z-score (mean of top ten 7-mers)): 11.2

## GUGUGUG [RNAcompete motif RNCMPT00283]
[2]
  binding signal (z-score (mean of top ten 7-mers)): 9.92

## GUUUUA [RNAcompete motif RNCMPT00341]
[3]
  binding signal (z-score (mean of top ten 7-mers)): 9.44

## UAAUUG [RNAcompete motif RNCMPT00291]
[4]
  binding signal (z-score (mean of top ten 7-mers)): 12

## UACUNG [RNAcompete motif RNCMPT00324]
[5]
  binding signal (z-score (mean of top ten 7-mers)): 22.8

## UAGGGA [RNAcompete motif RNCMPT00022]
[6]
  binding signal (z-score (mean of top ten 7-mers)): 10

## UGUGUG [RNAcompete motif RNCMPT00285]
[7]
  binding signal (z-score (mean of top ten 7-mers)): 10.2

## UGUUUU [RNAcompete motif RNCMPT00325]
[8]
  binding signal (z-score (mean of top ten 7-mers)): 9.34

## UUAUGUG [RNAcompete motif RNCMPT00326]
[9]
  binding signal (z-score (mean of top ten 7-mers)): 8.16

## UUUUUUG [RNAcompete motif RNCMPT00343]
[10]
  binding signal (z-score (mean of top ten 7-mers)): 13.5
